Results as given in patent publication US20030223975, “Transcriptional regulation of PTP-1B” (Cold Spring Harbor Laboratory, published 2003).

Key:
[1] = biological target: T1, YB-1 (B-TEP, purified from Rat1 nuclear extract) (Rattus norvegicus, UniProt P62961 SEQ:1-322); experiment: EMSA; 10 ng YB-1; complex supershifted by anti-YB-1; anti-GATA1/GATA2 as controls; 25 C; settings: label: 32P (EMSA) or biotin (pull-down)
Description: To further examine the interaction of YB-1 with the PTP1B enhancer, an EMSA was performed using purified YB-1 (10 ng) and the double-stranded DNA ³²P-labelled −155/−132 probe (see methods described above). A YB-1/DNA probe complex was detected by incubating the complex with the anti-YB-1 antibody (see above). Included as controls were anti-GATA1 (sc266X) and anti-GATA2 (sc-9008X) antibodies (Santa Cruz Biotechnology, Inc., Santa Cruz, Calif.). Purified YB-1 was incubated without antibody or separately with each antibody for 1 hour at 4° C., followed by addition of the DNA probe for 20 minutes at 25° C.

[2] = biological target: T1, YB-1 (B-TEP, purified from Rat1 nuclear …); experiment: pulldown; purified on -167/-132 affinity column, eluted at 0.8 M NaCl; complex B in EMSA
Description: To purify proteins within the TEP sequence complexes, nuclear extracts were subjected to SP-Sepharose chromatography followed by DNA-affinity chromatography (FIG. 3A). Nuclear extracts (approximately 50 mg) were obtained from Rat1 cells as described above. The extracts were dialyzed against starting buffer (0.1 M NaCl in 20 mM HEPES pH 7.9, 20 mM NaF, 1 mM Na₃VO₄, 1 mM Na₄P₂O₇, 0.125 μM okadaic acid, 1 mM EDTA, 1 mM EGTA, 1 mM DTT, 0.5 mM PMSF, 1 μg/ml leupeptin, 1 μg/ml aprotinin, 1 μg/ml pepstatin, 0.2% NP-40, 5% glycerol) and then applied to SP Sepharose (20 ml) (Pharmacia Biotech, Piscataway, N.J.) equilibrated with the starting buffer. Proteins were eluted in a stepwise manner with 0.2, 0.3, 0.4, 0.6, and 0.8 M NaCl containing nuclear extraction buffer. Each fraction (5 μl aliquots) was assayed by EMSA using ³²P-labelled probes as described above. Fractions containing Complex B (detected by the ³²P-labeled −167/−132 probe, see FIG. 2B) were dialyzed to 0.2 M NaCl containing starting buffer and then applied to a double-stranded DNA-conjugated affinity column. The sequence of the DNA used for affinity chromatography corresponded to nucleotides −167 to −132 from the transcription start site as follows:
The DNA was biotinylated according to standard methods. […]

GST-YB-1 = GST-YB-1 (UniProt P67809 P67809:1-324); experiment: EMSA; 1 or 10 ng GST-YB-1; binding shown in figure; settings: tags: N-terminal GST fusion, expressed in E. coli BL21 (plasmid gift of K. Kohno)
Sequence of GST-YB-1 (P67809 whole entry, the tested form may be a part, one chain of several): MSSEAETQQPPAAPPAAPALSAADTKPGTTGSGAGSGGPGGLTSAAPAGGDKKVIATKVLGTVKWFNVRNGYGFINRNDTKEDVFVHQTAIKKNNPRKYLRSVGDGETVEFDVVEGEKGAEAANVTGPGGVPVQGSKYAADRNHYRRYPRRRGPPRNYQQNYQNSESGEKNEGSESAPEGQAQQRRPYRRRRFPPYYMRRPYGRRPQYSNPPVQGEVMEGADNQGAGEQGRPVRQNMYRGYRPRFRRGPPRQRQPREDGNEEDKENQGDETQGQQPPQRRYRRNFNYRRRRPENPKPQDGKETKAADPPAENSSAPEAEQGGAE
From the text: Complex formation of YB-1 with the PTP1B enhancer was confirmed using purified YB-1 from a different source. Expression plasmids for GST and for GST-YB-1 (gift from Dr. K. Kohno) (see Izumi et al., Nucleic Acids Res. 29:1200-07 (2001)) were each separately transfected into E. coli BL21 cells. Recombinant proteins were expressed and purified (see Frangioni and Neel, Anal. Biochem. 210:179-87 (1993)) and analyzed by SDS-PAGE as shown in FIG. 9B (left panel). The interaction between GST-tagged YB-1 and the PTP1B enhancer probe was analyzed by EMSA. Purified GST or GST-YB-1 proteins (1 or 10 ng) were combined with double-stranded DNA ³²P-labelled probe −167/−132 (see above) in the absence or presence of unlabeled double-stranded DNA probe −167/−132 or the deletion mutant probe −167/−132 (Δ−155/−144) (see above), which were tested as competitors of complex formation.

T1 sequence (P62961 other isoform, or with tags, fused parts or gaps): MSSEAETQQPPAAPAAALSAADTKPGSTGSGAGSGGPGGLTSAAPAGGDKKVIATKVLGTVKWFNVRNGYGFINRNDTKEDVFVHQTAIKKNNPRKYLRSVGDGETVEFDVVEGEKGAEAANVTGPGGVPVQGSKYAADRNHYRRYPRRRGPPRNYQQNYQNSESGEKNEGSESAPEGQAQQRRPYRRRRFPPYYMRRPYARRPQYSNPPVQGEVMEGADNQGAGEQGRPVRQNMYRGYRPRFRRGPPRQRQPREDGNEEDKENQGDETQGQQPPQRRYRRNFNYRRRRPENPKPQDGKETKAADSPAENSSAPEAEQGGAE

B1: PTP1B enhancer -155/-132 (dsDNA)
DNA 1: AGATATCTCGCGGTGCTGGGGCCA
DNA 2: TGGCCCCAGCACCGCGAGATATCT
binding result [1]: binds

B2: PTP1B enhancer -167/-132 (dsDNA)
DNA 1: ACGCGCGCTATTAGATATCTCGCGGTGCTGGGGCCA
DNA 2: TGGCCCCAGCACCGCGAGATATCTAATAGCGCGCGT
binding result [2]: binds | binding result (GST-YB-1): binds
